Test results as given in the FLAb antibody collection.

Assay: patients with anti-drug antibodies; higher = more immunogenic

B1: unnamed (protein)
chain 1: EVQLVESGGGLVKPGGSLRLSCAASGFTFSNYAMSWVRQTPEKRLEWVATISRSGSYSYFPDSVQGRFTISRDNAKNSLYLQMNSLRAEDTAVYYCARLGGYDEGDAMDSWGQGTTVTVSS
chain 2: DIVMTQTPLSLSVTPGQPASISCKSSQSLLESDGKTYLNWYLQKPGQSPQLLIYLVSILDSGVPDRFSGSGSGTDFTLKISRVEAEDVGVYYCLQATHFPQTFGGGTKVEIK
patients with anti-drug antibodies: 17%

B2: unnamed (protein)
chain 1: EVQLVESGGGLVQPGGSLRLSCAASGFSLSNYYVTWVRQAPGKGLEWVGIIYGSDETAYATSAIGRFTISRDNSKNTLYLQMNSLRAEDTAVYYCARDDSSDWDAKFNLWGQGTLVTVSS
chain 2: AIQMTQSPSSLSASVGDRVTITCQASQSINNELSWYQQKPGKAPKLLIYRASTLASGVPSRFSGSGSGTDFTLTISSLQPDDFATYYCQQGYSLRNIDNAFGGGTKVEIK
patients with anti-drug antibodies: 1.8%

B3: unnamed (protein)
chain 1: QVQLQESGPGLVKPSQTLSLTCTVSGGSISSGDYFWSWIRQLPGKGLEWIGHIHNSGTTYYNPSLKSRVTISVDTSKKQFSLRLSSVTAADTAVYYCARDRGGDYYYGMDVWGQGTTVTVSS
chain 2: EIVLTQSPGTLSLSPGERATLSCRASQGISRSYLAWYQQKPGQAPSLLIYGASSRATGIPDRFSGSGSGTDFTLTISRLEPEDFAVYYCQQFGSSPWTFGQGTKVEIK
patients with anti-drug antibodies: 0%

B4: unnamed (protein)
chain 1: QVQLVQSGAEVKKPGASVKVSCKVSGYTFTSYDINWVRQAPGKGLEWMGWIYPGDGSIKYNEKFKGRVTMTVDKSTDTAYMELSSLRSEDTAVYYCARRGEYGNYEGAMDYWGQGTLVTVSS
chain 2: DIQMTQSPSSLSASVGDRVTITCKASQSVDYDGHSYMNWYQQKPGKAPKLLIYAASNLESGVPSRFSGSGSGTDFTLTISSLQPEDFATYYCQQSDENPLTFGGGTKVEIK
patients with anti-drug antibodies: 0.9%

B5: unnamed (protein)
chain 1: QVQLQQSGAEVKKPGASVKVSCEASGYTFPSYVLHWVKQAPGQGLEWIGYINPYNDGTQYNEKFKGKATLTRDTSINTAYMELSRLRSDDTAVYYCARGFGGSYGFAYWGQGTLVTVSS
chain 2: DIQLTQSPSSLSASVGDRVTMTCSASSSVSSSYLYWYQQKPGKAPKLWIYSTSNLASGVPARFSGSGSGTDFTLTISSLQPEDSASYFCHQWNRYPYTFGGGTRLEIK
patients with anti-drug antibodies: 10%

B6: unnamed (protein)
chain 1: QVQLVQSGAEVKKPGSSVKVSCKASGYTFTSYRMHWVRQAPGQGLEWIGYINPSTGYTEYNQKFKDKATITADESTNTAYMELSSLRSEDTAVYYCARGGGVFDYWGQGTLVTVSS
chain 2: DIQMTQSPSTLSASVGDRVTITCSASSSISYMHWYQQKPGKAPKLLIYTTSNLASGVPARFSGSGSGTEFTLTISSLQPDDFATYYCHQRSTYPLTFGQGTKVEVK
patients with anti-drug antibodies: 19%

B7: unnamed (protein)
chain 1: QVQLVQPGAEVVKPGASVKLSCKTSGYTFTSNWMHWVKQAPGQGLEWIGEIDPSDSYTNYNQNFQGKAKLTVDKSTSTAYMEVSSLRSDDTAVYYCARGSNPYYYAMDYWGQGTSVTVSS
chain 2: EIVLTQSPAIMSASPGERVTMTCSASSGVNYMHWYQQKPGTSPRRWIYDTSKLASGVPARFSGSGSGTDYSLTISSMEPEDAATYYCHQRGSYTFGGGTKLEIK
patients with anti-drug antibodies: 33%

B8: unnamed (protein)
chain 1: EVQLVESGGGLVQPGGSLRLSCAASGFTFSSYGMSWVRQAPGKGLELVASINSNGGSTYYPDSVKGRFTISRDNAKNSLYLQMNSLRAEDTAVYYCASGDYWGQGTTVTVSS
chain 2: DIVMTQSPLSLPVTPGEPASISCRSSQSLVYSNGDTYLHWYLQKPGQSPQLLIYKVSNRFSGVPDRFSGSGSGTDFTLKISRVEAEDVGVYYCSQSTHVPWTFGQGTKVEIK
patients with anti-drug antibodies: 0%

B9: unnamed (protein)
chain 1: QVQLQESGPGLVKPSETLSLTCTVSGYSITGGYLWNWIRQPPGKGLEWIGYISYDGTNNYKPSLKDRVTISRDTSKNQFSLKLSSVTAADTAVYYCARYGRVFFDYWGQGTLVTVSS
chain 2: DIVMTQSPLSLPVTPGEPASISCRSSQSIVHSNGNTYLQWYLQKPGQSPQLLIYKVSNRLYGVPDRFSGSGSGTDFTLKISRVEAEDVGVYYCFQGSHVPWTFGQGTKVEIK
patients with anti-drug antibodies: 0%

B10: unnamed (protein)
chain 1: EVQLVESGGGLVQPGGSLRLSCAASGYSFTGYYIHWVRQAPGKGLEWVARVIPNAGGTSYNQKFKGRFTLSVDNSKNTAYLQMNSLRAEDTAVYYCAREGIYWWGQGTLVTVSS
chain 2: DIQMTQSPSSLSASVGDRVTITCRSSQSLVHSNGNTFLHWYQQKPGKAPKLLIYTVSNRFSGVPSRFSGSGSGTDFTLTISSLQPEDFATYFCSQTTHVPWTFGQGTKVEIK
patients with anti-drug antibodies: 0%
